Data reported in doi:10.1101/2024.10.11.617910 (bioRxiv, 2024).

Target: beta-amyloid 42 peptide (UniProt P05067)
Assay: SiMoA

B1: Donanemab (antibody, V domains shown)
VH: QVQLVQSGAEVKKPGSSVKVSCKASGYDFTRYYINWVRQAPGQGLEWMGWINPGSGNTKYNEKFKGRVTITADESTSTAYMELSSLRSEDTAVYYCAREGITVYWGQGTTVTVSS
VL: DIVMTQTPLSLSVTPGQPASISCKSSQSLLYSRGKTYLNWLLQKPGQSPQLLIYAVSKLDSGVPDRFSGSGSGTDFTLKISRVEAEDVGVYYCVQGTHYPFTFGQGTKLEIK
B1: no binding.
